{"source": "patent US20230250154A1", "about": "(CYTONICS, published 2023)", "binders": {"B1": {"name": "Variant A2M, bait region SEQ ID NO 18 (other)", "chain": "SVSGKPQYMVLVPSLLHTETTEKGCVLLSYLNETVTVSASLESVRGNRSLFTDLEAENDVLHCVAFAVPKSSSNEEVMFLTVQVKGPTQEFKKRTTVMVKNEDSLVFVQTDKSIYKPGQTVKFRVVSMDENFHPLNELIPLVYIQDPKGNRIAQWQSFQLEGGLKQFSFPLSSEPFQGSYKVVVQKKSGGRTEHPFTVEEFVLPKFEVQVTVPKIITILEEEMNVSVCGLYTYGKPVPGHVTVSICRKYSDASDCHGEDSQAFCEKFSGQLNSHGCFYQQVKTKVFQLKRKEYEMKLHTEAQIQEEGTVVELTGRQSSEITRTITKLSFVKVDSHFRQGIPFFGQVRLVDGKGVPIPNKVIFIRGNEANYYSNATTDEHGLVQFSINTTNVMGTSLTVRVNYKDRSPCYGYQWVSEEHEEAHHTAYLVFSPSKSFVHLEPMSHELPCGHTQTVQAHYILNGGTLLGLKKLSFYYLIMAKGGIVRTGTHGLLVKQEDMKGHFSISIPVKSDIAPVARLLIYAVLPTGDVIGDSAKYDVENCLANKVDLSFSPSQSLPASHAHLRVTAAPQSVCALRAVDQSVLLMKPDAELSASSVYNLLPEKDLTGFPGPLNDQDDEDCINRHNVYINGITYTPVSSTNEKDMYSFLEDMGLKAFTNSKIRKPKMCPQLEHGPIPENFYGLEGEGEGEGEAIPMSIPRYLTAEFRGVTVEEPHTKLRKYFPETWIWDLVVVNSAGVAEVGVTVPDTITEWKAGAFCLSEDAGLGISSTASLRAFQPFFVELTMPYSVIRGEAFTLKATVLNYLPKCIRVSVQLEASPAFLAVPVEKEQAPHCICANGRQTVSWAVTPKSLGNVNFTVSAEALESQELCGTEVPSVPEHGRKDTVIKPLLVEPEGLEKETTFNSLLCPSGGEVSEELSLKLPPNVVEESARASVSVLGDILGSAMQNTQNLLQMPYGCGEQNMVLFAPNIYVLDYLNETQQLTPEIKSKAIGYLNTGYQRQLNYKHYDGSYSTFGERYGRNQGNTWLTAFVLKTFAQARAYIFIDEAHITQALIWLSQRQKDNGCFRSSGSLLNNAIKGGVEDEVTLSAYITIALLEIPLTVTHPVVRNALFCLESAWKTAQEGDHGSHVYTKALLAYAFALAGNQDKRKEVLKSLNEEAVKKDNSVHWERPQKPKAPVGHFYEPQAPSAEVEMTSYVLLAYLTAQPAPTSEDLTSATNIVKWITKQQNAQGGFSSTQDTVVALHALSKYGAATFTRTGKAAQVTIQSSGTFSSKFQVDNNNRLLLQQVSLPELPGEYSMKVTGEGCVYLQTSLKYNILPEKEEFPFALGVQTLPQTCDEPKAHTSFQISLSVSYTGSRSASNMAIVDVKMVSGFIPLKPTVKMLERSNHVSRTEVSSNHVLIYLDKVSNQTLSLFFTVLQDVPVRDLKPAIVKVYDYYETDEFAIAEYNAPCSKDLGNADYKDDDDKGASHHHHHH"}}, "test_in_all_cases": "cell-based or functional assay", "key": {"[1]": {"molecular_target": "T1, ADAMTS5 (human, UniProt Q9UNA0 262-622, limits assumed)", "T1 sequence (looked up)": "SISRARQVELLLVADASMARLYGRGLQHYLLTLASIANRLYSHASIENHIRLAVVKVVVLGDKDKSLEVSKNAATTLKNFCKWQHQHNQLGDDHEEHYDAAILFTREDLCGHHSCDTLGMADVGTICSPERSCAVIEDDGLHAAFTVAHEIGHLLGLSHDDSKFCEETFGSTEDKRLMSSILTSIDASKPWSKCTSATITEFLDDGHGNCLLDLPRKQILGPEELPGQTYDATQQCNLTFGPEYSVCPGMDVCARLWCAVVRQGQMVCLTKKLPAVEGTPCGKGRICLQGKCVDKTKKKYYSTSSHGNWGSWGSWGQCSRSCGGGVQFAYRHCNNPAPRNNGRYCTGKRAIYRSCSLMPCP"}, "[2]": {"molecular_target": "T2, MMP1 (human, UniProt P03956 100-469, limits assumed)", "T2 sequence (looked up)": "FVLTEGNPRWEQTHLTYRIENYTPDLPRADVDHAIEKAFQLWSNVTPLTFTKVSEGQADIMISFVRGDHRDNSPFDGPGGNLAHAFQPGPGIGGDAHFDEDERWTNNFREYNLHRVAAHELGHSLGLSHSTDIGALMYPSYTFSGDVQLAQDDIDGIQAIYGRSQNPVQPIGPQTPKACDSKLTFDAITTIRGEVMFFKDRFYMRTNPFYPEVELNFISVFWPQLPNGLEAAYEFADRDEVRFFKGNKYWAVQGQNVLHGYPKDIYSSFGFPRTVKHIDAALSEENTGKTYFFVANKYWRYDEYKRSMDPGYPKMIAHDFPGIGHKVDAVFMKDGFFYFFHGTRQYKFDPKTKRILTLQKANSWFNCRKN"}, "[3]": {"molecular_target": "MMP8 (human, UniProt P22894 101-467, limits assumed)", "sequence (P22894 101-467 limits assumed)": "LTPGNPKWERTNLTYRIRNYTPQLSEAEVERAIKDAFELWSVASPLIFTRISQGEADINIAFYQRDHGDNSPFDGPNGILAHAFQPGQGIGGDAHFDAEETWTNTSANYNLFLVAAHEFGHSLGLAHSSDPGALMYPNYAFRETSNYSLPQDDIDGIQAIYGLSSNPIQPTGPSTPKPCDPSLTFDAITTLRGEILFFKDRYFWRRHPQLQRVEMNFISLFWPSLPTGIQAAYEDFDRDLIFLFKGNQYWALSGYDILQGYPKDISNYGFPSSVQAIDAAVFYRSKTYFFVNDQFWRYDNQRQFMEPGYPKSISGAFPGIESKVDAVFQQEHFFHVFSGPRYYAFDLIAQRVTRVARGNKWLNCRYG"}, "[4]": {"molecular_target": "MMP13 (human, UniProt P45452 104-471, limits assumed)"}, "[5]": {"molecular_target": "T3, MMP2 (human, UniProt P08253 110-660, limits assumed)", "T3 sequence (looked up)": "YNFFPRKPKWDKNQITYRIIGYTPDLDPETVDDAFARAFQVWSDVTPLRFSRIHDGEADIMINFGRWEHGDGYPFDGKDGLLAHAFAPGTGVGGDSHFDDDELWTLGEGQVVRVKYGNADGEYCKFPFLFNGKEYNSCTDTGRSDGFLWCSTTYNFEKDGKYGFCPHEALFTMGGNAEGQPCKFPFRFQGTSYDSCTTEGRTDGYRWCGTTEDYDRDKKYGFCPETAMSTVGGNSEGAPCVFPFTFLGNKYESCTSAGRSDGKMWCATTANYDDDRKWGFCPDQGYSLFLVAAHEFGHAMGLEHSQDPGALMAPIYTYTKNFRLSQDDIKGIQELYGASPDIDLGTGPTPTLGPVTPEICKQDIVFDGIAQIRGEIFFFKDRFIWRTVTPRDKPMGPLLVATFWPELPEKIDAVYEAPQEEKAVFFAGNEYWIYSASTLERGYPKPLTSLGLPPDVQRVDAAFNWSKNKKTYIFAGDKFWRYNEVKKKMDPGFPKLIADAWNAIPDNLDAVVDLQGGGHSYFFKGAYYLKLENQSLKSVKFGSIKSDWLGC"}, "[6]": {"molecular_target": "MMP9 (human, UniProt P14780 107-707, limits assumed)", "sequence (P14780 107-707 limits assumed)": "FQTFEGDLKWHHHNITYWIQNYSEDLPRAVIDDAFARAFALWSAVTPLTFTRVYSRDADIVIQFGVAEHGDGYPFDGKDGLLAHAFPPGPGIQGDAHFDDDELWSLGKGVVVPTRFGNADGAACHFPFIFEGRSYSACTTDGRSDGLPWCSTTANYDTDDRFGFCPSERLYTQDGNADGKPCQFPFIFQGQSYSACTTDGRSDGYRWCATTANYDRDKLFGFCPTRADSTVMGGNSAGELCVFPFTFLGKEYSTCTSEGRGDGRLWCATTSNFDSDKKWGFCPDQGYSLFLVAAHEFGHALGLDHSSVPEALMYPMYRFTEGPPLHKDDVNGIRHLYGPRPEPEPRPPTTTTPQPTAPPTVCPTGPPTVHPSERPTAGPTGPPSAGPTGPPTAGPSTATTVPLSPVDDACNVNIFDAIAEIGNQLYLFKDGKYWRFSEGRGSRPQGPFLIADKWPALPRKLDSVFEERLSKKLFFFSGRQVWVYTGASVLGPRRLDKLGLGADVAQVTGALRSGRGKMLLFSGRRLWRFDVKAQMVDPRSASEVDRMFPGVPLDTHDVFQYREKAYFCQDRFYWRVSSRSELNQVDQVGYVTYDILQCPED"}, "[7]": {"molecular_target": "MMP3 (human, UniProt P08254 100-477, limits assumed)", "sequence (P08254 100-477 limits assumed)": "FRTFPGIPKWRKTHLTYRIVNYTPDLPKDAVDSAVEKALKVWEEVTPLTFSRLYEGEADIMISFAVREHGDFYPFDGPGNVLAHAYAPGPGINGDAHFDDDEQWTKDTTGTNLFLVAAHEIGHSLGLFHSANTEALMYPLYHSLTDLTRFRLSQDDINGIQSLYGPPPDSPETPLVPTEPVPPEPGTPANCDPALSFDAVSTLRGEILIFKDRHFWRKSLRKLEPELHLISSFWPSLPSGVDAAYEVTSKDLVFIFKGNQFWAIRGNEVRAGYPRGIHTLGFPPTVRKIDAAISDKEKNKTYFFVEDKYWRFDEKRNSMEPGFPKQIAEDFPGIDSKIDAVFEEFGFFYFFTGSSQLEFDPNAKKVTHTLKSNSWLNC"}, "[8]": {"molecular_target": "Elastase"}, "[9]": {"molecular_target": "T4, Cathepsin G (UniProt P08311 21-244)", "T4 sequence (looked up)": "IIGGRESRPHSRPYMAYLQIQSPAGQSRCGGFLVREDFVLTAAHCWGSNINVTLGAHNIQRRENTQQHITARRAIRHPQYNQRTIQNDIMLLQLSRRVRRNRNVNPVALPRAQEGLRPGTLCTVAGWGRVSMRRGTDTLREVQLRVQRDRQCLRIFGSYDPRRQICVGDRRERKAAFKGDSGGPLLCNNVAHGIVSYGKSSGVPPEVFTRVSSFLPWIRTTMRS"}, "[10]": {"molecular_target": "T5, MMP7 (UniProt P09237 95-267, limits assumed)", "T5 sequence (looked up)": "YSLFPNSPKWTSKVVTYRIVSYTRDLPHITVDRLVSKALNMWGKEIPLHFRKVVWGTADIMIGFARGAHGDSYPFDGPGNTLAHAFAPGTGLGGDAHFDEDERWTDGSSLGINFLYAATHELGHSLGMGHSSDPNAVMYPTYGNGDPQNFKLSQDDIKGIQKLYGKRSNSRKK"}}, "data": [{"binder": "B1", "values": [{"measurement": "Protease Inhibition (% of WT)", "setting": "[1]", "value": "154 % of WT"}, {"measurement": "Protease Inhibition (% of WT)", "setting": "[2]", "value": "91 % of WT"}, {"measurement": "Protease Inhibition (% of WT)", "setting": "[3]", "value": "82 % of WT"}, {"measurement": "Protease Inhibition (% of WT)", "setting": "[4]", "value": "117 % of WT"}, {"measurement": "Protease Inhibition (% of WT)", "setting": "[5]", "value": "58 % of WT"}, {"measurement": "Protease Inhibition (% of WT)", "setting": "[6]", "value": "53 % of WT"}, {"measurement": "Protease Inhibition (% of WT)", "setting": "[7]", "value": "38 % of WT"}, {"measurement": "Protease Inhibition (% of WT)", "setting": "[8]", "value": "86 % of WT"}, {"measurement": "Protease Inhibition (% of WT)", "setting": "[9]", "value": "83 % of WT"}, {"measurement": "Protease Inhibition (% of WT)", "setting": "[10]", "value": "102 % of WT"}]}]}
